According to PMC4318572 (Journal of biomolecular screening, 2014):

B1: GST–Fyn SH3–strep (domain or fragment)
chain: not shown

Key:
Assay in all cases: AlphaScreen or HTRF
GST–Fyn SH3–strep = target: B1
3R1N Tau = 3R1N Tau (human, UniProt P10636-4 1-381)
4R0N Tau = 4R0N Tau (human, UniProt P10636-6 1-383)
4R1N Tau = 4R1N Tau (human, UniProt P10636-7 1-412)
P233A Tau = P233A Tau (human, UniProt P10636-8 1-441, P233A)
P236A Tau = P236A Tau (human, UniProt P10636-8 1-441, P236A)
3R2N Tau = 3R2N Tau (human, UniProt P10636-5 1-410)
[1] = target: Tau with P232 mutated to alanine (human, UniProt P10636-8 1-441, P232 (alanine scan))
P203A Tau = P203A Tau (human, UniProt P10636-8 1-441, P203A)
3R0N Tau = 3R0N Tau (human, UniProt P10636-2 1-352)

Measured: binding result

YGRKKRRQRRRRSRTPSLPTPPTREPKK [Tat-tagged peptide spanning the 5th and 6th PXXP motifs in Tau]
binds: GST–Fyn SH3–strep

B1
not listed: GST–Fyn SH3–strep
binds: all other assays above
